Here are results for two molecules from patent US20210317479, “NUCLEIC ACID ASSEMBLIES FOR USE IN TARGETED DELIVERY” (The Broad Institute, Inc., published 2021).

For series [1], the target named is T1, SpCas9 (Streptococcus pyogenes, UniProt Q99ZW2 Q99ZW2:1-1368). Kind of series: EMSA; DX tile band shifted toward well on annealing with Cas9; sgRNA maintained after RNase H. The settings on record: sgRNA fused to central RNA staple of DX tile. The protocol:
Dx-tiles were made either containing the Gint or broccoli aptamers. To prepare the folded DX-tiles, the components (e.g., DNA scaffold, two flanking/end staples encoding either the Gint (i.e., Gint4.T and Gint21.T) or broccoli aptamers, and central staple) were mixed in equimolar concentrations and allowed to anneal over 2 hours from 95 C to 25 C. The resulting structures were visualized by gel electrophoresis.
Several bands were originally visualized, showing impurities in the production. […] Given that staple 2 spans across the region targeted by the sgRNA and could therefore contribute to misfolding, in a repeat experiment, staple 2 was left out of the folding mixture. This yielded higher folding. Upon addition and annealing with Cas9, the DX tile band was closer to the well on the gel. Addition of RNase H both with and without Cas9 released the HDR template.

Series [2] concerns the target T1, SpCas9. Briefly: EMSA; 5x molar Cas9 shifted nanoparticle band into the well. The settings on record: sgRNA whose 3' extension hybridises to DNA scaffold. As for the experimental part:
The DNA was amplified and purified by Qiagen, and transcribed using the NEB T7 HiScribe kit modified for short RNA production, and purified by PAGE purification. It was then folded with 50 mM HEPES-KOH pH 7.5, 300 mM KCl following the RNA/DNA hybrid folding protocol. The excess staples were purified away from the PB84 with a 100 kDa MWCO filter. A 2% high resolution agarose gel with 1×TAE buffer and 4 mM Mg-acetate was run at 4 C in the cold room at 65V for 180 minutes.
It was observed that the nanoparticle with the RNA staple presented a band at the same size as the all-DNA staple nanoparticle.
(In general: In EMSA bound probe runs differently from free probe, usually more slowly.)

T1 sequence (Q99ZW2 whole entry, the tested form may be a part, one chain of several): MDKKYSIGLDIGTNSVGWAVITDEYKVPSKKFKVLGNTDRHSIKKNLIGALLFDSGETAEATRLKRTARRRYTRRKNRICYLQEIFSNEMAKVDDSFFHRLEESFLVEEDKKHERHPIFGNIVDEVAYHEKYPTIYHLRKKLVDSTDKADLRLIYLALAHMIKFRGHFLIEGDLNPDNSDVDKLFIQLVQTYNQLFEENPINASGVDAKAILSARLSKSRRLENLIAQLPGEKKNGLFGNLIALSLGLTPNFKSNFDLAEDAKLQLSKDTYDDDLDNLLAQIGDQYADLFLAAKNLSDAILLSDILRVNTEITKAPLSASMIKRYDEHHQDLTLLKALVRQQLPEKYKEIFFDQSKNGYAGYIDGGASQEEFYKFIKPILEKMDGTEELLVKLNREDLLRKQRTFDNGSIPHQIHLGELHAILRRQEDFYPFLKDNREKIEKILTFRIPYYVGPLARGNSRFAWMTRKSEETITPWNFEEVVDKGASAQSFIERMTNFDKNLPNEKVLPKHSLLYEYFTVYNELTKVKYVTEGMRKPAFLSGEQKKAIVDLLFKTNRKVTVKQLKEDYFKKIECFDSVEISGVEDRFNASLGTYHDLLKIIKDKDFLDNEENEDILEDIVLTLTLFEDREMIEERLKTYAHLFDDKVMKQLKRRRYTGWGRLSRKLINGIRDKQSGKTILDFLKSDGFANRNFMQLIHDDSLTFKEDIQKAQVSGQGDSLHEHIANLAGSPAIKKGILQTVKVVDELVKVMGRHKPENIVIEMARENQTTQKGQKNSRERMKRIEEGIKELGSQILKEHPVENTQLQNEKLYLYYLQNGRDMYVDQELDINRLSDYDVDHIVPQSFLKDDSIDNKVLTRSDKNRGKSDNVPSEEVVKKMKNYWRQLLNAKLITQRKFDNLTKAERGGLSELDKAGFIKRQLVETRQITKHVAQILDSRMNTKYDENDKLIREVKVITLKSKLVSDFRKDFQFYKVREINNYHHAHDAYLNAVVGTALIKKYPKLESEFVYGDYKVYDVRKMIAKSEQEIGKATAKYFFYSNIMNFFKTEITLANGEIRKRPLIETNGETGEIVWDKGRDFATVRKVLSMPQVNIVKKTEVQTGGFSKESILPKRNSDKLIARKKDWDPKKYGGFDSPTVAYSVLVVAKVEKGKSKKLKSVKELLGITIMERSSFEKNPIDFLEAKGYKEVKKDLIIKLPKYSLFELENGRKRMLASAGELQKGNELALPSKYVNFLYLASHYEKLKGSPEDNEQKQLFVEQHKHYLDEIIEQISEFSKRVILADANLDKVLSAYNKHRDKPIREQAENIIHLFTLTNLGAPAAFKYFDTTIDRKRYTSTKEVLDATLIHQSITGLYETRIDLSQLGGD

B1: EGFP sgRNA-staple 3, in DX tile with HDR DNA scaffold (ssRNA)
RNA: GCUGAAGCACUGCACGCCGUGUUUUAGAGCUAUGCUGUUGAAAAACAGCAUAGCAAGUUAAAAUAAGGCUAGUCCGUUAUCAACUUGAAAAAGUGGCACCGAGUCGGUGCUUUUUCUGGCCCACCCUCAGCCGCUACCCCGACCACAUGAGCCCGUGCC
Turning to B1, the binding result in series [1] is “binds”.

B2: PCSK9 sgRNA with 3' staple extension (PB84), folded in DNA pentagonal bipyramid (ssRNA)
RNA: GGCUGAUGAGGCCGCACAUGGUUUUAGAGCUAUGCUGUUCUUCGGAACAGCAUAGCAAGUUAAAAUAAGGCUAGUCCGUUAUCAACUUGAAAAAGUGGCACCGAGUCGGUGCAAAAAUCACCCAGAAACGCUGGUGAAAGUGUAUGAGUAUUCAACAUUUCCGUGUCGCCCUUGUUUUUGCUGCAG
Turning to B2, the binding result in series [2] is given as “binds”.
